According to the DeepSol protein solubility set:

Assay: soluble on expression in E. coli; label from the status in PepcDB or PDB records

Row | Sequence | soluble on expression in E. coli
1 | MGSDKIHHHHHHMAANRFNGFTDYGIGIGLRIPHYRHILDNKPVVDWFEIISENYMIDGGRPLAVLDAILEQYRVVQHGVSMYFGSVDPLNREHLKRLKNLTRRTKTPWLTDHLCWGSVDGRYTHDLMPLPYTWEAIDVTVAKIKQVRDYLEIPVAVENVSSYAEFHESEMTEWEFLNEVVERADCGILLDVNNIYVSSMNHSFDPHVYVDSVPAERVAQIHIAGHSKYEKYILDTHDHPVIDPVWQLYAHAIRRCGPTATLLEWDDHIPSFEEVHNEALKAKKFLAENAEPVEKKIAAAEARV | not soluble
2 | MGSDKIHHHHHHMACVRDKPVSGPPTSLSAPHLRISLAFRGGLCPYSRARPEKDYAFKGNFVLRDLIANGQSMRTISLPRGRQRLHAMPTSTGYEVREDEIYDWDGRKRGQTPFTVLQHTISGTGRLRYENRNYRLQENDTLLVLVPHNHRYWLASDERWEYFWISMNGEEALRIHKSILSISGPVFRLKPATIDHLADCSLRLINGAASAGAASAIAYEAAMALYDDVFGSHAFAEKLSAMQPVIDHINANLDRPLPVADLVQISGLSRAHFSRCFAESEGLPPAEFVLQQRLQRAAKLLTKADFLPVKEVAILCGFEDANYFSKVFRRLYGTTPSQFRTTGMYANLRTPARRGVRVSDDET | not soluble
3 | MGSDKIHHHHHHMADKGIIFSDAMVRALLDGTKTQTRRLCAWPNNPNTPQLTYIVACDEPGWFGDEEGEVQFRVPHAQGDRLYVREAWSVRGTYTDVVEVGYRASANRSHTEFVEQWPVGDAIPGKGSWPQWPKYGPSIHMPRWASRMWLQITDVRVQRLQEISAADCRAEGLERGAVGGLLPAYRGSADLEWRIYADDAYHDLWDSLHGESGTRWADNPWVTVYTFDVHKGNIGKAARG | not soluble
4 | MGSDKIHHHHHHMADMTDQLPEVRKSHPYVMYEMMKDIPNGIDRTLSSMQNADLSFIGDDLIFLGNGTAYHSAYVGSQILDRVSKRHAVVQAYEYLNYMQSNAATIAISHTGKTKSTVDAVIKARKTAKTAGITHYADSPLYNSVDYPIAIADEDKSLCNTKAFFNNAFASLYIADYYGNLSYDMKNLRSEIAKHVGKDDPEMRSAAEELDQIDDIFVLGSGFNFPVAREAAQKIKEATHIHAEGIEFEEFNHGCTAVMDENTLVILIEGEKDRARGDQIARASRYVGSKTLAINGVGDISVYNDPQDDLSAAFLNTLDLYYLAYYLAVRRNINPDMLRFEDRRYRDYDSVVFPPGEH | not soluble
5 | MGSDKIHHHHHHMAEELLPLKTVRNPRDLGGYTGFAGRKIKAGLLLRTGTVAAISEEDGNYLRARGVKTIIDLRSPQECRKRPDKKLAGIQNVNIPVNSRDQTKAEASLAELARQYGLDPLAGFRHMVESYRLMVTEEHAQAAFGQVLAYLAETEGGTIYHCSEGKDRTGLVTVFLLTVLGVDPETIRQDYLLSAPYLNVYRAKRDKEARENGESLVQRANLRSLGTVNNEYLDS | not soluble
6 | MGSDKIHHHHHHMAGFRPKASPRLSPDAERLVADALALDASGSRMEDAYWERRLSQRLGRLLKNGSQTALDAALEHLFKHNADASDVLAEQAETLAESAMVEVDGVRYDALLVAAPILAHTRYAIPSGSLKPDLAQTLAVHLQAHVLATGTKVALSPYLYSIDQLPRTHSDTFALTHKLAAAALSGTVPKVDLRDLPETAPILADPRYLLAVVVAPHEQALFRWQEDAKEHHAERSTCLEQWRSQVQATVALLLPGCEFELLLPDAFFLSCRESDKSIRPLTVRAAVNYLSGTLDVPAGQLAAVVAAFGEEVVEEYRVGFTMRGEKDVIYGIVWPVYGREAGEVDADEKGNPLEQICEELRNAGVEDIFRHAALFDPEYCEDCGTPLYADRNGEIVHAELPEDAPTQQPLFH | not soluble
7 | MGSDKIHHHHHHMAGLRVFVSSTCYDLSVIRSQLRIFIQSLGHEPLMSDYSDLLYDPRLHTHTSCVDEVATADIVVLIVGARFGGKTVPEALAKLDFDLLKKESKSTESLIKKENLSVTQLEILKAVESGIPVFTFVDSSVWHDHALYEKNKDKPIINDISFPSIEKAETASFIFEFINFLRHRARGNSVYTFSKLQDIEDTLRRQWSSLFQKLIQEQRSKAFEAKRLDNLTEQFEDLKTAILTSIGTTNERDVARGVVRFRRLIDFVRSLGLKDHNFLIRGHHPWDELLHYAEIEKVLDAAELPEEFIFHRRNFGSRPRMFLIKNDGTFFELRTSPDFFHSLSLEWEAFMDLPEDTREIIVDALSEMRPGMGPLRYIREPFDYHVDKWIHQERLLKDIDDSDHESSHS | not soluble
8 | MGSDKIHHHHHHMAGWRTVVVNTHSKLSYKNNHLIFKDSYQTEMIHLSEIDILIMETTDIVLSTMLIKRLVDENILVIFCDDKRLPTAMLMPYYARHDSSLQLSRQMSWIEDVKADVWTSIIAQKILNQSFYLGECSFFEKSQSIMNLYHDLEPFDPSNREGHAARIYFNTLFGNDFSREQDNPINAGLDYGYSLLLSMFAREVVKCGCMTQFGLKHANQFNQFNLASDIMEPFRPIVDRIIYENRQSDFVKMKRELFSMFSETYSYNGKEMYLSNIVSDYTKKVIKSLNSDGNGIPEFRI | not soluble
9 | MGSDKIHHHHHHMAHPLSRIIDQLKREPSRTGSIVITVFGDAIVPRGGSVWLGTLLEFFESLDIDSGVVRTAMSRLAADGWLTREKVGRNSFYRLADKGHQTFEAATRHIYDPPPSDWTGRFELLLINGEDRDASREALRNAGFGSPLPGVWVAPSGVPVPDEAAGAIRLEVSAEDDSGRRLLSASWPLDRTADAYLKFMKTFEPLRTAIGRGTTLSDADAFTARILLIHHYRRVVLRDPLLPESLLPADWPGRAARELCGEIYRALLAPSEQWLDGHGTNEKGPLPAARKLLERRFGA | not soluble
10 | MGSDKIHHHHHHMAIKNVSIVYPNRFGGGIACLAVHVLTSHLNKYRDISANAYFIENYSKIKNSDAILITLQYENDYFNVVKIVKELKAQNPNAIFIAGGPCAISNPLPIQEFFDVFVVGEIEGTDTMYQLINGNFEIPGVYVPKTYNNEKIKRIYPKKLGIDDYPISQVTHESGAYGKAYLLEIGRGCIRNCKFCMAKCIYAPPRYRKIEDLKHLVDEGLKNTDADKVSLIAPSVSDYRYVLDLCAHISEKNVSISPSSLRADTITDELLEYLNLKTLTIAPEAGSEVLRKKIDKGITEENILNAVDIAKTHGISTVKLYYMVGFPDETEEDIEEIINLTKKIKDNVRKVDVSINPMVPKPHTPFEDFEFDMDSKTKIKYIEKSLRKIKVSVDFEKFNSMVAQTVLARGGSELSKVLNESRNTIELIKNVDLDNYINKIEEKPWDFIEI | not soluble
11 | MGSDKIHHHHHHMAIRSNHILVSRTDNIGDIVLTLPMVARLRQLNPKAKISFLCRAYAAPLVRFCTDIDEVIELENIADDPAGFLRKSGIDTVILAQPDRTLAQAAFRARVRHRIGNARQKIYLMLYCNRRVRFSKRTTEDHEAQINFRFLSPYGSRDIPTREQIPDLYHFDIPEDKAISDMQAPYAFNLVLHTKSNGHGREWPIEHYAALAELLLARRDVHLWLSGSAKEGEWLKANGGALLAKPNVTSLCGTQTLGQLTTFIHQADGLIASGTGPLHLSAAIGQRTLGLFPPTRPMHPGRWAALGKRAQNLVRDKSCRDCEKLETISCDCMVQLSPQSVLEIVEGWIRDKSAA | not soluble
12 | MGSDKIHHHHHHMAKEILVAYGVDIDAVAGWLGSYGGEDSPDDISRGLFAGEVGIPRLLKLFKKYHLPATWFSPGHSIETFSEQMKMIVDAGHEVGAHGYSHENPIAMTAKQEEDVLLKSVELIKDLTGKAPTGYVAPWWEFSNITNELLLKHGFKYDHSLMHNDFTPYYVRVGDSWSKIDYSLEAKDWMKPLIRGVETDLVEIPANWYLDDLPPMMFIKKSPNSFGFVSPHDIGQMWIDQFDWVYREMDYAVFSMTIHPDVSARPQVLLMHEKIIEHINKHEGVRWVTFNEIADDFLKRNPRKK | not soluble
13 | MGSDKIHHHHHHMAKFDLTTPWGRFKTYLHYLWNDHAYLRLGFSNAHWISPELVRANQPWPFQLAWWKKRGIKTIVNLRGGFDGSFYALEKDACERLGLNFVDFVITSREVPIRERVRGAKELFERIEYPALMHCKSGADRAGIMSVFYAHYRLGQPIREAMQQLGPRYLHIKHGNTGVLDYVFEQYLEKGEPKGLTFSDWVESDDYDPVEMKKTFRAGMLGKVLTDKILRRE | not soluble
